Target: T1, rat GLP-1 receptor (CHO cells transfected with the rat GLP-1 receptor) (rat, UniProt P32301 22-463)
T1 sequence (looked up): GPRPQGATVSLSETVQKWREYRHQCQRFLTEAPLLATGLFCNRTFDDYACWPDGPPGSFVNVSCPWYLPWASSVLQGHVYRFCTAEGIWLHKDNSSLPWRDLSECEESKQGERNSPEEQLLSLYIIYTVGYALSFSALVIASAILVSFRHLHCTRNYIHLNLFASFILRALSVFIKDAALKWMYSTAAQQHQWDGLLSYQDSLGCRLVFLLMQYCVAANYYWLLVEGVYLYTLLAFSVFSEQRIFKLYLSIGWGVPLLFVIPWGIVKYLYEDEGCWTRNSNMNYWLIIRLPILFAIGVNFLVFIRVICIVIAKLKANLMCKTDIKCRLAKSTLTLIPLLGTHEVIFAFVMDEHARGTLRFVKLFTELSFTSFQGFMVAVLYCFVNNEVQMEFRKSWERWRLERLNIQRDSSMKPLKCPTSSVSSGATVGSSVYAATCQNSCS
Assay: cell-based or functional assay

cAMP assay EC50 (fermentation F0191): 5.9 nM
B1: pREX0558: GLP-1 (7-37;A8G;G22E;K34A) fused to the N-terminus of transferrin with PEAPTD and IgG hinge linkers (other)
chain: HGEGTFTSDVSSYLEEQAAKEFIAWLVAGRGPEAPTDVEPKSSDKTHTSPPSPAPELLGGPSVPDKTVRWCAVSEHEATKCQSFRDHMKSVIPSDGPSVACVKKASYLDCIRAIAANEADAVTLDAGLVYDAYLAPNNLKPVVAEFYGSKEDPQTFYYAVAVVKKDSGFQMNQLRGKKSCHTGLGRSAGWNIPIGLLYCDLPEPRKPLEKAVANFFSGSCAPCADGTDFPQLCQLCPGCGCSTLNQYFGYSGAFKCLKDGAGDVAFVKHSTIFENLANKADRDQYELLCLDNTRKPVDEYKDCHLAQVPSHTVVARSMGGKEDLIWELLNQAQEHFGKDKSKEFQLFSSPHGKDLLFKDSAHGFLKVPPRMDAKMYLGYEYVTAIRNLREGTCPEAPTDECKPVKWCALSHHERLKCDEWSVNSVGKIECVSAETTEDCIAKIMNGEADAMSLDGGFVYIAGKCGLVPVLAENYNKADNCEDTPEAGYFAVAVVKKSASDLTWDNLKGKKSCHTAVGRTAGWNIPMGLLYNKINHCRFDEFFSEGCAPGSKKDSSLCKLCMGSGLNLCEPNNKEGYYGYTGAFRCLVEKGDVAFVKHQTVPQNTGGKNPDPWAKNLNEKDYELLCLDGTRKPVEEYANCHLARAPNHAVVTRKDKEACVHKILRQQQHLFGSNVADCSGNFCLFRSETKDLLFRDDTVCLAKLHDRNTYEKYLGEEYVKAVGNLRKCSTSSLLEACTFRRP

From patent US20060205037A1 (published 2006)
